Columns and labels:
[1] = target: DNA damage-binding protein 1 (DDB1), full length human (human, UniProt Q16531 1-1140); assay: crystal structure
[2] = target: Uracil-DNA glycosylase UNG2, catalytic domain (residues 83-304) (human, UniProt P13051-2 83-304); assay: crystal structure
Sequence of Uracil-DNA glycosylase UNG2, catalytic domain (residues 83-304) (P13051 92-313): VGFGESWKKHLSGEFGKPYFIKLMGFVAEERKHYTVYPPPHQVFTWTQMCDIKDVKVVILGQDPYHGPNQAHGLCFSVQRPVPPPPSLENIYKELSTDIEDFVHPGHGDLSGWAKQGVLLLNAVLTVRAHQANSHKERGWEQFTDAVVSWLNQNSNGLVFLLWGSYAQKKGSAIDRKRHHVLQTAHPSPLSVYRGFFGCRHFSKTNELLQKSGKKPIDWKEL

Sequence of DNA damage-binding protein 1 (DDB1), full length human (Q16531 whole entry, the tested form may be a part): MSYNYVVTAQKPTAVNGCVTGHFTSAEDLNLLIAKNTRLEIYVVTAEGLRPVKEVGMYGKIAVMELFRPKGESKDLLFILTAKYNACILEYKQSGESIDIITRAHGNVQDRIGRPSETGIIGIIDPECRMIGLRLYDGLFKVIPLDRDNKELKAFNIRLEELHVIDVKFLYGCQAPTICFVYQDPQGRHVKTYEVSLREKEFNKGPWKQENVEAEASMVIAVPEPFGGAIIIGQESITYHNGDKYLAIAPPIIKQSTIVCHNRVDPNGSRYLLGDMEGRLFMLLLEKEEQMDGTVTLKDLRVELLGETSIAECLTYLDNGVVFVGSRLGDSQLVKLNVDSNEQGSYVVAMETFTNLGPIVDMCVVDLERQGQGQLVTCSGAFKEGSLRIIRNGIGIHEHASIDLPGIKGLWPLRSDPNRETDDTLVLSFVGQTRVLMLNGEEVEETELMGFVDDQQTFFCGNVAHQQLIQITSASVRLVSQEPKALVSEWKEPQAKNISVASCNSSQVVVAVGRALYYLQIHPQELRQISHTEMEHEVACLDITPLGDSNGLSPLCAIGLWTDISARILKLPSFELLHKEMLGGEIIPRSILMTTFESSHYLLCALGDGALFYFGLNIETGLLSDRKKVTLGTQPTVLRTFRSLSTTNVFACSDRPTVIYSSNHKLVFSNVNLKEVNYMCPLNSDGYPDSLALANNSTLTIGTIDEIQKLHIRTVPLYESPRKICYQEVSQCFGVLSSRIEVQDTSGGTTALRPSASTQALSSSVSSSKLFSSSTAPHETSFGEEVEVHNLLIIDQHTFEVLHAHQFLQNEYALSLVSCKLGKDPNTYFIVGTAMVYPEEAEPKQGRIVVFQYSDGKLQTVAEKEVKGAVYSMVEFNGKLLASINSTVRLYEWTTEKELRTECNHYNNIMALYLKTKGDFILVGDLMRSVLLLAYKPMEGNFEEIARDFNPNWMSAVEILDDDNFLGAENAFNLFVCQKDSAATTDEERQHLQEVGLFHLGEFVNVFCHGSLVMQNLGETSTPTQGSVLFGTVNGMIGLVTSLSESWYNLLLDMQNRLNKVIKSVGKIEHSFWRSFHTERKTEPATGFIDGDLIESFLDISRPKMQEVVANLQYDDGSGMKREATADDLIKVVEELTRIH

Binder | binding result [1] | binding result [2]
DDB1- and CUL4A-associated factor 1 (DCAF1), C-terminal region including the WD40 domain (residues 1046-1396) (domain or fragment) not shown | binds | 
HIV-1 (NL4-3 clone) Vpr with H78C mutation (natural protein, UniProt P12520 1-96, looked up) MEQAPEDQGPQREPYNEWTLELLEELKSEAVRHFPRIWLHNLGQHIYETYGDTWAGVEAIIRILQQLLFIHFRIGCRCSRIGVTRQRRARNGASRS |  | binds

Reference: paper PMC5385928 (Nature structural & molecular biology, 2016)
